For this data set, the target named is T7-RelA, Q04206.

The source of these data is US7081343.

Chain of T7-RelA, Q04206 (Q04206 whole entry): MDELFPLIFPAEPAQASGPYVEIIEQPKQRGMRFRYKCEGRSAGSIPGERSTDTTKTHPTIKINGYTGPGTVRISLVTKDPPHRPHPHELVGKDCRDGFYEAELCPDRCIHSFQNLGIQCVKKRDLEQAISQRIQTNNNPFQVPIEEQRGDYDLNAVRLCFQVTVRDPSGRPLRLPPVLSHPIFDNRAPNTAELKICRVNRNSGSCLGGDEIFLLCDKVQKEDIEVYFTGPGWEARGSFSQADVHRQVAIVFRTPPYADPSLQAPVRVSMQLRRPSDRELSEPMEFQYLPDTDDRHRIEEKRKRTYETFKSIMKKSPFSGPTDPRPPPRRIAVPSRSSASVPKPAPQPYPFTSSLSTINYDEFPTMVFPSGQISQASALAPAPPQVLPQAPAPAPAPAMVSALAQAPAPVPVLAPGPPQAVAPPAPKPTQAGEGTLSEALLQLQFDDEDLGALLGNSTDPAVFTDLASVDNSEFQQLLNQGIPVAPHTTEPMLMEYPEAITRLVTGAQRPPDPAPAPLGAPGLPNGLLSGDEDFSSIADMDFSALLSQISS

B1: P/CAF (protein)
chain: MSEAGGAGPGGCGAGAGAGAGPGALPPQPAALPPAPPQGSPCAAAAGGSGACGPATAVAAAGTAEGPGGGGSARIAVKKAQLRSAPRAKKLEKLGVYSACKAEESCKCNGWKNPNPSPTPPRADLQQIIVSLTESCRSCSHALAAHVSHLENVSEEEMNRLLGIVLDVEYLFTCVHKEEDADTKQVYFYLFKLLRKSILQRGKPVVEGSLEKKPPFEKPSIEQGVNNFVQYKFSHLPAKERQTIVELAKMFLNRINYWHLEAPSQRRLRSPNDDISGYKENYTRWLCYCNVPQFCDSLPRYETTQVFGRTLLRSVFTVMRRQLLEQARQEKDKLPLEKRTLILTHFPKFLSMLEEEVYSQNSPIWDQDFLSASSRTSQLGIQTVINPPPVAGTISYNSTSSSLEQPNAGSSSPACKASSGLEANPGEKRKMTDSHVLEEAKKPRVMGDIPMELINEVMSTITDPAAMLGPETNFLSAHSARDEAARLEERRGVIEFHVVGNSLNQKPNKKILMWLVGLQNVFSHQLPRMPKEYITRLVFDPKHKTLALIKDGRVIGGICFRMFPSQGFTEIVFCAVTSNEQVKGYGTHLMNHLKEYHIKHDILNFLTYADEYAIGYFKKQGFSKEIKIPKTKYVGYIKDYEGATLMGCELNPRIPYTEFSVIIKKQKEIIKKLIERKQAQIRKVYPGLSCFKDGVRQIPIESIPGIRETGWKPSGKEKSKEPRDPDQLYSTLKSILQQVKSHQSAWPFMEPVKRTEAPGYYEVIRFPMDLKTMSERLKNRYYVSKKLFMADLQRVFTNCKEYNPPESEYYKCANILEKFFFSKIKEAGLIDK
For the protein B1, the “acetylation of T7-RelA (anti-T7 immunoprecipitation, anti-acetylated lysine blot)” value was “P/CAF failed to mediate this response”.
